The target in test [1] is T1, human DLL4 extracellular domain (human, UniProt Q9NR61 27-529).
T1 construct: purified recombinant ECD; biotin-labelled or 6xHis-tagged depending on the assay; also called huDLL4 ECD; hu DLL4 ECD
The experiment in a line: SPR (Biacore). The procedure: (§1) The BIACORE® surface plasmon resonance assay (Biacore, Inc., Piscataway, N.J., US) determines the affinity of antibodies with kinetic measurements of on-rate and off-rate constants. Binding of DLL4 antibodies to a purified recombinant DLL4 extracellular domain (ECD) was determined by surface plasmon resonance-based measurements with a Biacore® instrument (either a Biacore 2000, Biacore 3000, or Biacore T100; GE Healthcare, Piscataway, N.J., US) using running buffer HBS-EPB (10 mM HEPES [pH 7.4], 150 mM NaCl, 3 mM EDTA, 0.1 mg/ml BSA and 0.005% surfactant P20) at 25° C. For example, approximately 9000 RU of goat anti-human Fc specific polyclonal antibody (Thermo Fisher Scientific Inc., Rockford, Ill., US) diluted in 10 mM sodium acetate (pH 4.5) is directly immobilized across a CMS research grade biosensor chip using a standard amine coupling kit according to manufacturer's instructions and procedures at 25 μg/ml. Unreacted moieties on the biosensor surface were blocked with ethanolamine. For kinetic analysis, rate equations derived from the 1:1 Langmuir binding model were fitted simultaneously to multiple antigen injections (using global fit analysis) with the use of Scrubber 2 (BioLogic Software), Biacore Biaevaluation 4.0.1 software or Biacore T100 Evaluation software. Purified antibodies were diluted in running buffer for capture across goat anti-human Fc reaction surfaces. Antibodies to be captured as a ligand (1 μg/ml) were injected over reaction matrices at a flow rate of 10 μl/min. During the assay, all measurements were referenced against the capture surface alone (i.e., with no captured anti-DLL4 antibody). […] The equilibrium dissociation constant KD (M) of the reaction between antibodies and the target antigen was then calculated from the kinetic rate constants by the following formula: KD=Koff/Kₒₙ. Binding was recorded as a function of time and kinetic rate constants were calculated.
(In general: In SPR one partner is held on a chip, and binding of the other changes the refractive index at the surface.)

Test [2] deals with T2, cynomolgus monkey DLL4 extracellular domain (cynomolgus monkey).
T2 construct: extracellular domain; also called cynoDLL4 ECD; Cyno DLL4
Kind of test: SPR (Biacore). The procedure:
as §1

Test [3] concerns the target T3, mouse DLL4 extracellular domain (mouse, UniProt Q9JI71 27-532).
T3 construct: extracellular domain; also called muDLL4 ECD; murine DLL4
Kind of test: SPR (Biacore). The gist of the method: (§2)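 Purified anti-DLL4 antibodies (1 μg/ml) captured on immobilized goat anti-human Fc, with DLL4 ECD injected as analyte; HBS-EPB running buffer (pH 7.4), 25° C, referenced against capture-only surface. On/off rates from global 1:1 Langmuir fit; KD = Koff/Kon.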

For test [4], the target named is T4, rat DLL4 extracellular domain (rat, UniProt D3ZHH1 28-530).
T4 construct: extracellular domain; also called ratDLL4 ECD
T4 sequence (D3ZHH1 28-530): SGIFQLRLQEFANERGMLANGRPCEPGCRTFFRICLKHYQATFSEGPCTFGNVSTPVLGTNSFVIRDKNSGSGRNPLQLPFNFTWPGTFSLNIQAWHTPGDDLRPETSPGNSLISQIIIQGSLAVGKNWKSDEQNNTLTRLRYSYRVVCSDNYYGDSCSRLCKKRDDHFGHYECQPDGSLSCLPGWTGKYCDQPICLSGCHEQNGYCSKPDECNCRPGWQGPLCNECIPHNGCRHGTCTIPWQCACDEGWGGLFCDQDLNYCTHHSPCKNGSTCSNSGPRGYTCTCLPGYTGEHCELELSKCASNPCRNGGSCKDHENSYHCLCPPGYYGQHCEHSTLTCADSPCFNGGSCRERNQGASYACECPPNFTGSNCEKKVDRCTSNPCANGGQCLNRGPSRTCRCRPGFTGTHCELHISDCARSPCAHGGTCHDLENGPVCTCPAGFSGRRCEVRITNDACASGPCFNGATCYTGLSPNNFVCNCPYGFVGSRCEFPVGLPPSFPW
The experiment in a line: SPR (Biacore). The gist of the method:
as §2

Test [5] has as its target T5, human DLL4, full length, on cells (human, UniProt Q9NR61 27-685).
T5 construct: also called huDLL4 cells; human DLL4-293G
The experiment in a line: FACS, DLL4 cells. The procedure: (§3) Stable cell lines overexpressing cell-surface DLL4 were harvested from tissue culture flasks, washed four times and resuspended in phosphate buffered saline (PBS) containing 1% bovine serum albumin and 1 mM CaCl₂ (FACS buffer). 1.5×10⁵ cells were incubated with antibodies at various concentrations in FACS buffer for 60 minutes on ice. […] Following an incubation on ice (4° C., 60 minutes), cells were washed three times and resuspended in FACS buffer. Fluorescence was measured using a Becton Dickinson FACSCalibur-HTS (Becton Dickinson, San Jose, Calif., US). Data were analyzed using Graphpad Prism software and EC₅₀ values were reported as the concentration of antibody to achieve 50% of maximal DLL4 antibodies binding to DLL4 expressing cells. […]
Background: A flow cytometer gives signals particle by particle.

Test [6] addresses T6, mouse DLL4 on cells (mouse, UniProt Q9JI71 27-686).
T6 construct: whole, on cells; also called mouse DLL4-293G; mu DLL4 cells
Kind of test: FACS, DLL4 cells. How it is done:
as §3

Test [7] has as its target T5, human DLL4, full length, on cells. The experiment in a line: cell-based or functional assay.
The target is the same in test [8]. The experiment in a line: competition FACS: huNotch-1-biotin to DLL4 cells. How it is done:
(§4) Notch blocking assay: Briefly, stable cell lines overexpressing cell-surface DLL4 were harvested from tissue culture flasks and re-suspended in phosphate buffered saline (PBS) containing 1% bovine serum albumin and 1 mM CaCl₂ (FACS buffer). HEK293G-DLL4 cells were dispensed into 96-well plate (v-bottom) at 1.5×10⁵ cells/well in FACS buffer. After spinning down cells and discarding the supernatant, 50 μL of purified IgG with appropriate dilution were added to each well, and incubated on ice at 4° C. for 60 minutes, followed by addition of 50 μL/well of Notch1-biotin at 0.2 μg/mL for human DLL4-293G or 2.0 μg/mL for mouse DLL4-293G (1.0 or 0.1 μg/mL final) for an additional 1 hour incubation ice at 4° C. After washing the cells two times with FACS buffer, 50 μL of R-phycoerythrin-conjugated streptavidin (1:150 dilution in FACS buffer) (Jackson ImmunoResearch, West Grove, Pa., Cat.#016-110-084) were added. Following an incubation on ice (4° C., 60 minutes), cells were washed three times and resuspended in FACS buffer. Fluorescence was measured using a Becton Dickinson FACSCalibur-HTS (Becton Dickinson, San Jose, Calif.). Data were analyzed using Graphpad Prism software, and IC₅₀ values were reported as the concentration of antibody to achieve 50% reduction of Notch1 bound to DLL4 expressing cells. […]

In test [9] the target is T6, mouse DLL4 on cells. The experiment in a line: competition FACS: huNotch-1-biotin to DLL4 cells. How it is done:
as §4

In test [10] the target is T5, human DLL4, full length, on cells. The experiment in a line: FACS, DLL4 cells. This is another data set of the same source.
The target of test [11] is T6, mouse DLL4 on cells. Kind of test: FACS, DLL4 cells. The source holds these as a separate data set.
The target of test [12] is T5, human DLL4, full length, on cells. The experiment in a line: competition FACS: huNotch-1 to DLL4 cells. How it is done:
(§5) Notch blocking assay: Briefly, stable cell lines overexpressing cell-surface DLL4 were harvested from tissue culture flasks and re-suspended in phosphate buffered saline (PBS) containing 1% bovine serum albumin and 1 mM CaCl₂ (FACS buffer). HEK293G-DLL4 cells were dispensed into 96-well plate (v-bottom) at 1.5×10⁵ cells/well in FACS buffer. After spinning down cells and discarding the supernatant, 50 μL of purified IgG with appropriate dilution were added to each well, and incubated on ice at 4° C. for 60 minutes, followed by addition of 50 μL/well of Notch1-biotin at 0.2 μg/mL for human DLL4-293G or 2.0 μg/mL for mouse DLL4-293G (1.0 or 0.1 μg/mL final) for an additional 1 hour incubation ice at 4° C. After washing the cells two times with FACS buffer, 50 μL of R-phycoerythrin-conjugated streptavidin (1:150 dilution in FACS buffer) (Jackson ImmunoResearch, West Grove, Pa., Cat.#016-110-084) were added. Following an incubation on ice (4° C., 60 minutes), cells were washed three times and resuspended in FACS buffer. Fluorescence was measured using a Becton Dickinson FACSCalibur-HTS (Becton Dickinson, San Jose, Calif.). Data were analyzed using Graphpad Prism software, and IC₅₀ values were reported as the concentration of antibody to achieve 50% reduction of Notch1 bound to DLL4 expressing cells.

Test [13] deals with T6, mouse DLL4 on cells. The experiment in a line: competition FACS: huNotch-1 to DLL4 cells. The procedure: as §5
Test [14] deals with T1, human DLL4 extracellular domain. The experiment in a line: binding ELISA, DLL4 ECD.
For test [15], the target named is T3, mouse DLL4 extracellular domain. The experiment in a line: binding ELISA, DLL4 ECD.

Residue numbers refer to the chain shown, from its start. Where two headings read alike, the source gives them in different places.

Data on six molecules can be found in US20110217237A1 (AbbVie / Abbott, published 2011).

One may read the Kd as the equilibrium constant for the complex coming apart. A word on the koff: it is the rate constant with which the complex falls apart. As a reminder, the kon is the second-order rate constant of association. In general, EC50 refers to the concentration that produces a half-maximal response. In general, IC50 refers to the concentration that inhibits the measured activity by half.

T6 sequence (Q9JI71 27-686): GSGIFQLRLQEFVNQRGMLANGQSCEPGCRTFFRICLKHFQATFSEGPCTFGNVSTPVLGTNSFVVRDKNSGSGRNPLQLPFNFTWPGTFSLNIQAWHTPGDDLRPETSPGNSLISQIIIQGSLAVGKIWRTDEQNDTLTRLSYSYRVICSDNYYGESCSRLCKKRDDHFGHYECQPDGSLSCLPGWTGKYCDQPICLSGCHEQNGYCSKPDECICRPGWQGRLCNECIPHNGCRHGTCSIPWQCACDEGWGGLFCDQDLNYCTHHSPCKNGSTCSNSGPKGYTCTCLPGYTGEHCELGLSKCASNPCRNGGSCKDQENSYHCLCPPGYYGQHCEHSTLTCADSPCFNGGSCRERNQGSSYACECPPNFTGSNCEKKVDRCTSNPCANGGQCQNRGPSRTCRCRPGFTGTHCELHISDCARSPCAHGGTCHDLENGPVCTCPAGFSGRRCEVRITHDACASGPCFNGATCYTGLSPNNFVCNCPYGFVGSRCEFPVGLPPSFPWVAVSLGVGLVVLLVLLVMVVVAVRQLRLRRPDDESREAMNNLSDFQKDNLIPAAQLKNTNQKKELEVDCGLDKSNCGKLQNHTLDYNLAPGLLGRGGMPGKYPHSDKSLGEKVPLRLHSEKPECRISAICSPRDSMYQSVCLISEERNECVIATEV
T1 sequence (Q9NR61 27-529 limits assumed): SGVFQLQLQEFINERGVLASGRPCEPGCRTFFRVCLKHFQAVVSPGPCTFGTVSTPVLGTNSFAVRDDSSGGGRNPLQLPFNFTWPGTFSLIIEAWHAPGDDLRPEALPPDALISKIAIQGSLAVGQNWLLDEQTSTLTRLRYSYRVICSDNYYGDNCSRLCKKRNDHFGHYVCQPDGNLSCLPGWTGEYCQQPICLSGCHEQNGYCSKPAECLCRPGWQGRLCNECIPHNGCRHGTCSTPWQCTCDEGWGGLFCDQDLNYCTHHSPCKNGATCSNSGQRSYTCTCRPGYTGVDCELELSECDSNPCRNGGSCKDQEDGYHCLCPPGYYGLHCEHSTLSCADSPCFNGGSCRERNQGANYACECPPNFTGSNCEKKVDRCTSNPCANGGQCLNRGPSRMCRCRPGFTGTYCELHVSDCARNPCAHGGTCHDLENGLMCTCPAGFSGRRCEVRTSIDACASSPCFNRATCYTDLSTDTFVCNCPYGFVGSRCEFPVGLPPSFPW
T5 sequence (Q9NR61 27-685 limits assumed): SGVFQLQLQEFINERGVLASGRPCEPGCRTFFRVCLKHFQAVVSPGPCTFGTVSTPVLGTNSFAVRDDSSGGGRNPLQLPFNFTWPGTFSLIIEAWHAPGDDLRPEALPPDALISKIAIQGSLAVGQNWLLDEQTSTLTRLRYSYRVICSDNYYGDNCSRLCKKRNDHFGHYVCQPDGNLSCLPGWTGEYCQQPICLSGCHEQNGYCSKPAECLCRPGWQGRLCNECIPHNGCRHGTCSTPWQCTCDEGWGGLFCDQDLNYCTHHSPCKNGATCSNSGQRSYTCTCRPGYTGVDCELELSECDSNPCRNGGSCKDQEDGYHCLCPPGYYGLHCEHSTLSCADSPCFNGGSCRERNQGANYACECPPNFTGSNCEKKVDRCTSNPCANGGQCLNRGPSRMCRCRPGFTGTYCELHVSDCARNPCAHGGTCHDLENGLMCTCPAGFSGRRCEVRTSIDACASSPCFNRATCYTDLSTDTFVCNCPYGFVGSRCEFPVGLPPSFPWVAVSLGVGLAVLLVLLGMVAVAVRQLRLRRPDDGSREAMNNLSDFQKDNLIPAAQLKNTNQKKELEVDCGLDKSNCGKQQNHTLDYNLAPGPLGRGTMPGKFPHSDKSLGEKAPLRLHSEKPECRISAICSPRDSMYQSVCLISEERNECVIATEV
T3 sequence (Q9JI71 27-532): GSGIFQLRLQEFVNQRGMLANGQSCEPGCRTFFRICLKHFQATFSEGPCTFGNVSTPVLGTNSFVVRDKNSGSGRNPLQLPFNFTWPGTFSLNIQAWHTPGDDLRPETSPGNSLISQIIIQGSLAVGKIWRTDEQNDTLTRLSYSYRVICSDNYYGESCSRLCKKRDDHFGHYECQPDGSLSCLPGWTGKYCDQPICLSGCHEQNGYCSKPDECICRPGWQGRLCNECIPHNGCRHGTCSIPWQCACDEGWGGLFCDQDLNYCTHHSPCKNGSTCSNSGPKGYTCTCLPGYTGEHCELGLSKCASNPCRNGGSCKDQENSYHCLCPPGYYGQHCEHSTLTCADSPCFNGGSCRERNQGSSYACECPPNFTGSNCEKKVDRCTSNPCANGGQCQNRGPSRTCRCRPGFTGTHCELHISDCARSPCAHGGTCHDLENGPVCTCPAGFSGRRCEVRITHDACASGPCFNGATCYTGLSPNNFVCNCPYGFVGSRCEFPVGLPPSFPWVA

B1: 15D6 rat anti-DLL4 monoclonal antibody (antibody, rat IgG2a, V domains shown)
VH: EVQLQQSGPELAKPGSSVKISCKASGYTFTSSYISWIKQTTGQGLEYIGYINTGSGGTDYNEKFKDKATLTVDKSSRTVFMQLSSLTPGDSAVYYCAKSILLGSTYYLDYWGQGVMVTVSS
VL: DTVLTQSPALAVSLGQRVTISCKASRSLSSPMYSYIYWYQQKLGQQPRLLIYRASTLASGVPARFSGSGSGTDFTLNIDPVEADDIATYFCQQSWSDPFTFGSGTKLEIKR
notes: rat IgG2a/K hybridoma mAb; also called MC13-15D6.1G7
Consider B1, for which the dissociation constant (Kd) in test [1] was 9.2 nM; in [2], 14.9 nM; in [3], 0.7 nM. Further, the koff in test [1] amounted to 0.001 s⁻¹; in test [2], 0.00083 s⁻¹; in test [3], 5.1e-05 s⁻¹. Also, the on-rate constant (kon) in test [1] was 110000 M⁻¹ s⁻¹; in [2], 56000 M⁻¹ s⁻¹; in test [3], 74000 M⁻¹ s⁻¹. Also, the binding result in test [4] was “no binding”. Besides, the EC50 in [5] was 15 nM; in the test with mouse DLL4 on cells [6], 1.6 nM. Besides, the “Notch activation Inhibition (IC50, nM), huDLL4 cell/Notch reporter cells” value in test [7] amounted to 3.2 nM. Also, the IC50 in [8] stood at 25 nM; in the test with mouse DLL4 on cells [9], 1.5 nM.

B2: 14A11 chimeric antibody (antibody, human IgG1, V domains shown)
VH: B1 VH with S31N, I48V, T58A, D66G, V79A, Y106C, L108F, M116L
VL: B1 VL with D1N, L28V, L43P, R48K
notes: also called Chimera of 14A11
As for B2, the EC50 in [10] stood at 1.61 nM; with mouse DLL4 on cells [11], 2.14 nM. Also, the half-inhibitory concentration (IC50) in test [12] worked out at 4.03 nM; with mouse DLL4 on cells [13] it was 1.39 nM.

B3: 15D6 chimeric antibody (antibody, human IgG1, V domains shown)
VH: B1 VH
VL: B1 VL
notes: also called Chimera of 15D6
Regarding B3, the EC50 was 1.72 nM in test [10] and 1.82 nM with mouse DLL4 on cells [11]. Also, the IC50 was determined as 10.5 nM in test [12] and 1.49 nM in the test with mouse DLL4 on cells [13].

B4: 37D10 chimeric antibody (antibody, human IgG1, V domains shown)
VH: AVQLVESGGGLVQPKESLKISCAASGFTFSNAAMYWVRLAPGKGLEWVARIRTKPNNYATYYAESVKGRFTISRDDSKSMVYVQMDNLKTEDTAMYYCTAAPWRDSYAHVYWGQGVMVTVSS
VL: DIQMTQSPPVLSASVGDRVTLSCKASQNIHKNLDWYQQKHGDAPKLLIYYTDHLQTGVPSRFSGSGSATDYTLTISSLQPEDVATYYCYQYNGGPFTFGSGTKLEIKR
notes: also called Chimera of 37D10
As for B4, the EC50 in test [10] was 2.32 nM; with mouse DLL4 on cells [11], 0.99 nM. Besides, the IC50 in test [12] came to 5.95 nM; with mouse DLL4 on cells [13], 4.39 nM.

B5: 14G1 rat anti-DLL4 monoclonal antibody (antibody, rat IgG2a, V domains shown)
VH: EVQLQQSGAELAKPGSSVKISCKASGYTFTNYDISWIKQTNGQGLEYLGYINTGSGGIYSNEKFKGKATLTVDKSSNTAFMQLSSLTPEDTAVYYCVREGNNFDHWGQGVKVTVSS
VL: DTVMTQSPASMSTSVGERVTVNCKASQSVGTIVAWFQQKPGQSPKRLIYLATYRHTGVPDRFIGSGFGRDFTLTISNVEAEDLAVYYCLQYGSRPFTFGAGTKLEIKR
notes: rat IgG2a/K hybridoma mAb; also called MC13-14G1.1B4
As to B5, the Kd is 7.2 nM in test [1] and 10.5 nM in test [2]. Moreover, the koff worked out at 0.00039 s⁻¹ in test [1] and 0.00041 s⁻¹ in [2]. The results for the on-rate (kon) in [1] and in [2] were 54000 M⁻¹ s⁻¹ and 39000 M⁻¹ s⁻¹, respectively. Besides, the binding result in test [3] and in test [4] was “no binding” throughout. The values for the half-maximal effective concentration (EC50) (in test [5]; in the test with mouse DLL4 on cells [6]) were 8.6 nM and > 50 nM, respectively. Further, the “Notch activation Inhibition (IC50, nM), huDLL4 cell/Notch reporter cells” value in test [7] came out at 6.1 nM. This molecule yielded an IC50 in test [8] of 4.2 nM.

B6: 32C7 rat anti-DLL4 monoclonal antibody (antibody, rat IgG2a, V domains shown)
VH: EVQLVESGGGLVQPGRSLKLSCLASGFPFSSVWMTWIRQAPGKGLEWIATITNSGASTYYSASVKGRFTISRDNVKSTLYLQMTSLGSEDTATYYCTRVGTSFDYWGQGVMVTVSS
VL: DIQMTQSPASLSASLGETVTIECRASDDIYNGLAWFQQKPGKSPQLLIYDANTLHTGVPSRFSGSGSGTQFSLKINSLQSEDVASYFCQQFYDYPPYTFGAGTKLELKR
notes: rat IgG2a/k hybridoma mAb; also called MC10-32C7.5A4
B6: the Kd is 0.03 nM in test [1], 0.03 nM in test [2] and 88 nM in [3]. In addition, the koff in test [1] was 7e-06 s⁻¹; in [2] it was 6.3e-06 s⁻¹; in test [3], 0.0041 s⁻¹. Moreover, the kon was 280000 M⁻¹ s⁻¹ in [1], 220000 M⁻¹ s⁻¹ in [2] and 48000 M⁻¹ s⁻¹ in test [3]. In addition, the 50% effective concentration (EC50) came to 3.1 nM in test [5], 0.8 nM in the test with mouse DLL4 on cells [6], 0.08 nM in [14] and 0.15 nM in [15].
